Experimental data published in patent US20230002503A1 (BIOTHEUS, published 2023).

B1: Hu-H-YE-05-D3 (Fc fusion)
chain: EVQLLESGGGLVQPGGSLRLSCAASGNSVNIFSFAAMSWYRQAPGKGLELVAVITTTGGTKYSDSVKGRFTISRDNSKNTLYLQMNSLRAEDTAVYYCNADYLQDYWGQGTQVTVSS
notes: also called humanized recombinant antibody from H-YE-05; not shown: human IgG1 Fc segment
B2: Hu-H-YE-23-D2 (Fc fusion)
chain: QVQLVESGGGLVQPGGSLRLSCSASGNSANIFSFASVAWYRQAPGKGLELVSVITSAGGTKYSDSVKGRFTISRDNSKNTLYLQMNSLRAEDTAVYYCNVDYLQDYWGQGTLVTVSS
notes: T0013 prints the label as Hu-H-YB-23-D2; also called Hu-H-YB-23-D2; humanized recombinant antibody from H-YE-23; not shown: human IgG1 Fc segment
B3: H-YE-24 (Fc fusion)
chain: QVQLQESGGGLVQPGGSLRLSCAASGNSVNIFRFAAMAWYRQAPGKQRELVAVITSAGGTKYSDSVKGRFTISRDNAKNTVLLQMNSLKPEDTAVYYCNADYLQDYWGQGTQVTVSS
notes: also called CAIX nanobody H-YE-24; not shown: human IgG1 Fc segment
B4: H-YE-25 (Fc fusion)
chain: QVQLQESGGGLVQPGGSLRLSCAASGNSVNIFRFAAMAWYRQAPGKQRELVAVITTTGGTKYSDSVKGRFTISRDSAKNTVLLQMNSLKPEDTAVYYCNADYLQDYWGQGTQVTVSS
notes: also called CAIX nanobody H-YE-25; not shown: human IgG1 Fc segment
B5: H-YE-23 (Fc fusion)
chain: QVQLQESGGGLVQPGGSLRLSCAASGNSANIFSFASVAWYRQAPGKQRELVAVITSAGGTKYSDSVKGRFTISRDNAKNTILLQMNSLKPEDTAVYYCNVDYLQDYWGQGTQVTVSS
notes: also called CAIX nanobody H-YE-23; WYE-23; not shown: human IgG1 Fc segment
B6: Hu-H-YE-05-D4 (Fc fusion)
chain: EVQLLESGGGLVQPGGSRRLSCAASGNSVNIFSFAAVAWYRQAPGKQRELVAVITTTGGTKYSDSVKGRFTISRDSSKNTVYLQMNSLRAEDTAVYYCNADYLQDYWGQGTQVTVSS
notes: as for B1
B7: H-YE-05 (Fc fusion)
chain: QVQLQESGGGLVQPGGSRRLSCAASGNSVNIFSFAAVAWYRQAPGKQRELVAVITTTGGTKYSDSVKGRFTISRDSAKNTVLLQMNSLKPEDTAVYYCNADYLQDYWGQGTQVTVSS
notes: also called CAIX nanobody H-YE-05; not shown: human IgG1 Fc segment
B8: H-YE-26 (Fc fusion)
chain: QVQLQESGGGLVQAGGSLRLSCAASGNSVNIFRFATVAWYRQAPGEQRELVAVITSAGGTKYSDSVKGRFTISRDNAKNTVLLQMNSLKPEDTAVYYCNADFLQDYWGQGTQVTVSS
notes: also called CAIX nanobody H-YE-26; not shown: human IgG1 Fc segment
B9: H-YE-32 (Fc fusion)
chain: QVQLQESGGGLVQPGGSLRLSCAASGGARNIFSFAAMAWYRQAPGKQRELVAVITSAGGTQYSSSVKGRFTISRDNAKKTVLLQMNSLKPEDTAVYYCNADYYQDYWGQGTQVTVSS
notes: also called CAIX nanobody H-YE-32; not shown: human IgG1 Fc segment
B10: H-YE-03 (Fc fusion)
chain: QVQLQESGGGLVQPGGSLRLSCTASTSSFNFQTMGWYRQAPGKQRELVATITSRAITNYADSVKGRFTISRDNAAKTVSLQMNSLKPEDTAVYYCNAAWIGDYWGQGTQVTVSA
notes: also called CAIX nanobody H-YE-03; not shown: human IgG1 Fc segment
B11: H-YE-04 (Fc fusion)
chain: QVQLQESGGGLVQPGGSLRLSCTASTSSFNFQTLGWYRQAPGNQRELVATITSRAITNYADSVKGRFTISRDNAAKTVSLQMNSLKPEDTAVYYCNAAWIGDYWGQGTQVTVSS
notes: also called CAIX nanobody H-YE-04; not shown: human IgG1 Fc segment
B12: Hu-H-YE-32-D6 (Fc fusion)
chain: QVQLVESGGGLVQPGGSLRLSCSASGGARNIFSFAAMAWYRQAPGKGLELVAVITSAGGTQYSSSVKGRFTISRDNSKKTLYLQMNSLRAEDTAVYYCNADYYQDYWGQGTQVTVSS
notes: also called humanized antibody from H-YE-32; not shown: human IgG1 Fc segment
B13: Hu-H-YE-32-D5 (Fc fusion)
chain: QVQLVESGGGLVQPGGSLRLSCSASGGARNIFSFAAMHWYRQAPGKGLELVAVITSAGGTYYADSVKGRFTISRDNSKKTLYLQMNSLRAEDTAVYYCNADYYQDYWGQGTQVTVSS
notes: T0013 prints the label as Hu-H-YB-32-D5; also called Hu-H-YB-32-D5; humanized antibody from H-YE-32; not shown: human IgG1 Fc segment
B14: H-YE-38 (Fc fusion)
chain: QVQLQESGGGLMQPGGSLTLSCAVPRFTLDYYAIGWFRQAPGKEREFVAAISWSGGTTQYSDSAKGRFTISRDNSKNTGYLQMNSLKPEDTATYYCAAGRQLEWRTYDYWGQGTQVTVSS
notes: also called CAIX nanobody H-YE-38; not shown: human IgG1 Fc segment
B15: H-YE-40 (Fc fusion)
chain: QVQLQESGGGLVQAGGSLRLSCAASGRTFSSYAMGWFRQAPGKEREFVATISWNGGSTYYADSVKGRFTISRDNAKNTVYLQMNSLKPEDTAVYYCAAEHDLGELAGTGYDYWGQGTQVTVSS
notes: also called CAIX nanobody H-YE-40; not shown: human IgG1 Fc segment
B16: H-YE-37 (Fc fusion)
chain: QVQLQESGGGLMHDGDSLRLSCAASGRTFSTYAMGWFRQAPGKEREFVAAISWSGGSTYYADSVKGRFTISRDNAKNTVYLQMNSLKPEDTAVYYCAAEGIYNSGSSYHDANGYDYWGQGTQVTVSS
notes: also called CAIX nanobody H-YE-37; not shown: human IgG1 Fc segment
B17: H-YE-33 (Fc fusion)
chain: QVQLQESGGGLVQPGGSLRLSCAASGGDFRFYDMGWYRQAPGKQRELVAGITTRGYTNYADVVKGRFTISRDNAKNTVYLEMNSLKPEDTAVYSCSASHFLGGRIDYWGQGTQVTVSS
notes: also called CAIX nanobody H-YE-33; not shown: human IgG1 Fc segment

How the values were obtained:
[1] = target: T1, human CAIX on CHO cells (CHO-hCAIX) (human, UniProt Q16790 38-459); test: flow cytometry on CHO-hCAIX cells
Experimental: (§1) CHO cells overexpressing human CAIX (CHO-hCAIX cells) were generated by the pCHO1.0 vector (purchased from Invitrogen) transfected with CAIX cDNA. The cell density of the proliferated CHO-CAIX cells were adjusted to 2×10⁶ cells/ml, added at 100 μL/well to a 96-well flow cytometry plate, and centrifuged for later use. The purified CAIX antibody was diluted with PBS, and 3-fold dilution was started from 400 nM for a total of 12 points, and 100 μL/well of the above diluted sample was added to the above-mentioned 96-well flow cytometry plate with the cells, incubated at 4° C. for 30 min, and washed with PBS for two times. Goat F(ah′)2 Anti-Human IgG-Fc(PE) (purchased from Abeam, ab98596) diluted 100 times with PBS was added at 100 μL/well, incubated at 4° C. for 30 min, and washed twice with PBS. PBS was added at 100 μl/well to resuspend the cells, the cells were detected on a CytoFlex (Bechman) flow cytometer, and the corresponding MFI was calculated.
The purified humanized antibodies were subjected to the detection of binding capacity of the purified humanized nanobody to CHO-hCAIX at cell level according to the method described in Example 4, and the results were shown in FIG. 2 and Table 5.

[2] = target: T2, murine CAIX on CHO cells (CHO-mCAIX) (mouse, UniProt Q8VHB5 32-437); test: flow cytometry on CHO-mCAIX cells
T2 construct: whole, on cells; also called mouse CAIX
T2 sequence (Q8VHB5 32-437): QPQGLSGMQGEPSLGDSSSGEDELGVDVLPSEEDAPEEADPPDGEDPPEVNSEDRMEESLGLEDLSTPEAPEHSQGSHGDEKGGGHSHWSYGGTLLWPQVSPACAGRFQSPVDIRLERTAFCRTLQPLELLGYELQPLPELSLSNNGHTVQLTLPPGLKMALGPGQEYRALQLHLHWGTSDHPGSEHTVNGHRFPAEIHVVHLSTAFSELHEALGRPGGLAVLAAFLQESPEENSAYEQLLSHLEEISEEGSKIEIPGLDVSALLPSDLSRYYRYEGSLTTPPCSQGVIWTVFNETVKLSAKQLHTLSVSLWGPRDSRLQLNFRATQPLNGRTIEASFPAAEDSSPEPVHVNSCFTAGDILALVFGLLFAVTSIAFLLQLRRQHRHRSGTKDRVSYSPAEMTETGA
Experimental: as §1
In order to identify the affinity of the antibody to murine CAIX (mCAIX) at cell level, the cell stain was constructed according to the method described in Example 4, the affinity of the purified humanized antibody to CHO-mCAIX at cell level was identified, and the results were shown in FIG. 4 and Table 7.

[3] = target: T3, human CAIX antigen (purchased from AcroBiosystems) (human, UniProt Q16790 38-414); test: BLI (ForteBio), method of Example 3
[4] = target: T4, monkey CAIX on CHO cells (CHO-cyCAIX) (monkey); test: flow cytometry on CHO-cyCAIX cells
T4 construct: whole, on cells
Experimental: as §1
In order to identify the affinity of the antibody to monkey CAIX (cyCAIX) at cell level, the cell strain was constructed according to the method described in Example 4, the affinity of the purified humanized antibody to CHO-cyCAIX was identified at cell level, and the results were shown in FIG. 3 and Table 6.

[5] = target: T3, human CAIX antigen (purchased from …); test: BLI (ForteBio), antibody on AHQ sensor, 100 nM antigen, 1:1 model
[6] = target: T1, human CAIX on CHO cells (CHO-hCAIX); test: flow cytometry on CHO-hCAIX cells, anti-human IgG-Fc PE
Experimental: as §1

[7] = target: T3, human CAIX antigen (purchased from …); test: BLI (ForteBio), method of Example 3; second run, alongside the humanized antibodies (Table 4)

| Binder | EC50 [1] | EC50 [2] | Kd [3] | koff [3] | kon [3] | EC50 [4] | Kd [5] | koff [5] | kon [5] | EC50 [6] | Kd [7] |
| --- | --- | --- | --- | --- | --- | --- | --- | --- | --- | --- | --- |
| B1 | 4.46 nM | 20.8 nM | 10.3 nM | 0.00185 s⁻¹ | 179000 M⁻¹ s⁻¹ | 14.3 nM | – | – | – | – | – |
| B2 | 8.71 nM | 43.7 nM | 6.68 nM | 0.00105 s⁻¹ | 158000 M⁻¹ s⁻¹ | 25.1 nM | – | – | – | – | – |
| B3 | – | – | – | – | – | – | 1.34 nM | 0.000798 s⁻¹ | 594000 M⁻¹ s⁻¹ | 3.06 nM | – |
| B4 | – | – | – | – | – | – | 1.21 nM | 0.00106 s⁻¹ | 875000 M⁻¹ s⁻¹ | 2.44 nM | – |
| B5 | 3.11 nM | 38.1 nM | 4.08 nM | 0.000556 s⁻¹ | 136000 M⁻¹ s⁻¹ | 6.55 nM | 0.218 nM | 0.0002 s⁻¹ | 917000 M⁻¹ s⁻¹ | 3.55 nM | – |
| B6 | 5.07 nM | 58.8 nM | 7.84 nM | 0.00142 s⁻¹ | 181000 M⁻¹ s⁻¹ | 13.5 nM | – | – | – | – | – |
| B7 | 4.55 nM | 31.7 nM | – | 0.00159 s⁻¹ | 155000 M⁻¹ s⁻¹ | 7.32 nM | 0.557 nM | 0.000662 s⁻¹ | 1.19e+06 M⁻¹ s⁻¹ | 8.79 nM | 10.3 nM |
| B8 | – | – | – | – | – | – | 0.109 nM | 0.000109 s⁻¹ | 999000 M⁻¹ s⁻¹ | 4.46 nM | – |
| B9 | 14.6 nM | 34.1 nM | 0.369 nM | 0.0001 s⁻¹ | 271000 M⁻¹ s⁻¹ | 9.42 nM | 0.498 nM | 0.000492 s⁻¹ | 988000 M⁻¹ s⁻¹ | 6.14 nM | – |
| B10 | – | – | – | – | – | – | 1.14 nM | 0.00141 s⁻¹ | 1.24e+06 M⁻¹ s⁻¹ | 7.34 nM | – |
| B11 | – | – | – | – | – | – | 0.282 nM | 0.000259 s⁻¹ | 919000 M⁻¹ s⁻¹ | 7.78 nM | – |
| B12 | 9.61 nM | 59.6 nM | 0.384 nM | 0.0001 s⁻¹ | 260000 M⁻¹ s⁻¹ | 8.39 nM | – | – | – | – | – |
| B13 | 2.33 nM | 552 nM | 8.2 nM | 0.00177 s⁻¹ | 216000 M⁻¹ s⁻¹ | 22.7 nM | – | – | – | – | – |
| B14 | – | – | – | – | – | – | 0.529 nM | 0.000513 s⁻¹ | 969000 M⁻¹ s⁻¹ | – | – |
| B15 | – | – | – | – | – | – | 2.53 nM | 0.00125 s⁻¹ | 495000 M⁻¹ s⁻¹ | 4.74 nM | – |
| B16 | – | – | – | – | – | – | 2.39 nM | 0.00249 s⁻¹ | 1.04e+06 M⁻¹ s⁻¹ | 6.07 nM | – |
| B17 | – | – | – | – | – | – | 2.04 nM | 0.00139 s⁻¹ | 682000 M⁻¹ s⁻¹ | 2.78 nM | – |
